Test results published in publication PMC10244618.
Values joined by “and” are separate entries in the source; they are usually repeats but may differ in a detail not shown here. Identical values can stand only once.

B1: NF2 (merlin) isoform 7, human, full length (507 aa, lacks exons 2-3 = isoform-1 residues 39-121; exon-16 C-terminus), P35240-4 (parent)
chain: MAGAIASRMSFSSLKRKQPKTFTVRIVTMDAEMEFNCEVKKQILDEKIYCPPEASVLLASYAVQAKYGDYDPSVHKRGFLAQEELLPKRVINLYQMTPEMWEERITAWYAEHRGRARDEAEMEYLKIAQDLEMYGVNYFAIRNKKGTELLLGVDALGLHIYDPENRLTPKISFPWNEIRNISYSDKEFTIKPLDKKIDVFKFNSSKLRVNKLILQLCIGNHDLFMRRRKADSLEVQQMKAQAREEKARKQMERQRLAREKQMREEAERTRDELERRLLQMKEEATMANEALMRSEETADLLAEKAQITEEEAKLLAQKAAEAEQEMQRIKATAIRTEEEKRLMEQKVLEAEVLALKMAEESERRAKEADQLKQDLQEAREAERRAKQKLLEIATKPTYPPMNPIPAPLPPDIPSFNLIGDSLSFDFKDTDMKRLSMEIEKEKVEYMEKSKHLQEQLNELKTEIEALKLKERETALDILHNENSDRGGSSKHNTIKKPQAQGRRPICI

Variants of: B1
Assay: reverse yeast two-hybrid deep mutational scan (rY2H-seq): NF2 isoform 7 mutant library as bait mated with wild-type prey strains; selection on medium lacking adenine for non-interacting pairs; NextSeq paired-end sequencing; enrichment vs …
Settings: with KDM1A (lysine-specific histone demethylase 1A; the table's label AOF2 is a gene synonym of KDM1A), O60341; yeast diploids after mating (RBait_S3 x RPrey_S3), 30 °C, selection for reporter genes on NB agar; human tyrosine kinase ABL2 co-expressed as the active kinase …; HIGHER = WEAKER BINDING (the opposite of display enrichments): higher = stronger loss of interaction: reverse Y2H selects yeast in which bait and prey do NOT interact (growth without adenine), so a …; hits-only table; scale: rY2H score; numbering: uniprot, sequence starts at 1

**Q.** E309K was tested. Which enrichment did it give?
**A.** 1.97

**Q.** With M401E as the variant, how does the enrichment read?
**A.** 1.62

**Q.** For A316E, which enrichment is on record?
**A.** 2.69

**Q.** With I412H as the variant, how does the enrichment read?
**A.** 6.45

**Q.** T394A was tested. Which enrichment did it give?
**A.** 1.4

**Q.** How did the enrichment turn out when E121A was run?
**A.** 1.59

**Q.** With M96I as the variant, how does the enrichment read?
**A.** 1.63

**Q.** Which enrichment does the source give for D299E here?
**A.** 1.51

**Q.** I160K was tested. Which enrichment did it give?
**A.** 3.84 and 4.07

**Q.** For R89K, which enrichment is on record?
**A.** 1.9

**Q.** How did the enrichment turn out when T308I was run?
**A.** 2.84

**Q.** For S421K, which enrichment is on record?
**A.** 2.61

**Q.** For E444K, which enrichment is on record?
**A.** 1.5

**Q.** Which enrichment does the source give for D428N here?
**A.** 1.87

**Q.** Which enrichment does the source give for E321L here?
**A.** 3.26

**Q.** For A140G, which enrichment is on record?
**A.** 1.91

**Q.** M286A was tested. Which enrichment did it give?
**A.** 1.89

**Q.** R363L was tested. Which enrichment did it give?
**A.** 1.9

**Q.** L301A was tested. Which enrichment did it give?
**A.** 2

**Q.** For E391R, which enrichment is on record?
**A.** 2.32

**Q.** Which enrichment does the source give for A365K here?
**A.** 2

**Q.** Which enrichment does the source give for K356E here?
**A.** 1.91

**Q.** For S489L, which enrichment is on record?
**A.** 2.43

**Q.** For E311K, which enrichment is on record?
**A.** 1.67 and 1.4

**Q.** How did the enrichment turn out when K330L was run?
**A.** 2.59

**Q.** For D162Y, which enrichment is on record?
**A.** 2.15

**Q.** How did the enrichment turn out when A333E was run?
**A.** 2.04

**Q.** For G419E, which enrichment is on record?
**A.** 4.86

**Q.** With R243K as the variant, how does the enrichment read?
**A.** 1.55

**Q.** Q500K was tested. Which enrichment did it give?
**A.** 1.42

**Q.** L390E was tested. Which enrichment did it give?
**A.** 2

**Q.** For H159A, which enrichment is on record?
**A.** 1.39

**Q.** For P407L, which enrichment is on record?
**A.** 1.77 and 2.01

**Q.** How did the enrichment turn out when Y398K was run?
**A.** 2.43

**Q.** For M446I, which enrichment is on record?
**A.** 1.99

**Q.** Which enrichment does the source give for A155C here?
**A.** 1.93

Same assay, conditions: with NF2 C-terminal domain (wild type; homomeric NF2-NF2 interaction), P35240; yeast diploids after mating (RBait_S3 x RPrey_S3), 30 °C, selection for reporter genes on NB agar; human ABL2 co-expressed as the kinase-dead K35M mutant …; HIGHER = WEAKER BINDING (the opposite of display enrichments): higher = stronger loss of interaction: reverse Y2H selects yeast in which bait and prey do NOT interact (growth without adenine), so a …; hits-only table; partner unresolved; scale: rY2H score; numbering: uniprot, sequence starts at 1

**Q.** How did the enrichment turn out when E309K was run?
**A.** 1.83

**Q.** For I160K, which enrichment is on record?
**A.** 1.71 and 3.21

**Q.** Which enrichment does the source give for S421K here?
**A.** 2.24

**Q.** For A140G, which enrichment is on record?
**A.** 1.75

**Q.** R363L was tested. Which enrichment did it give?
**A.** 2.55

**Q.** L301A was tested. Which enrichment did it give?
**A.** 1.81

**Q.** Which enrichment does the source give for H159A here?
**A.** 2.04

**Q.** With A378L as the variant, how does the enrichment read?
**A.** 2.15

**Q.** How did the enrichment turn out when Y61K was run?
**A.** 1.84

**Q.** L417T was tested. Which enrichment did it give?
**A.** 2.32

**Q.** S423L was tested. Which enrichment did it give?
**A.** 2.58

**Q.** H491L was tested. Which enrichment did it give?
**A.** 2.51

**Q.** Which enrichment does the source give for D118K here?
**A.** 4.21

**Q.** For E132K, which enrichment is on record?
**A.** 5.61

**Q.** For L475K, which enrichment is on record?
**A.** 4.06

**Q.** For E245A, which enrichment is on record?
**A.** 1.58

**Q.** With N482A as the variant, how does the enrichment read?
**A.** 3.43

**Q.** For Q376A, which enrichment is on record?
**A.** 5.78

**Q.** For Q261E, which enrichment is on record?
**A.** 1.7

**Q.** E310L was tested. Which enrichment did it give?
**A.** 1.51

**Q.** How did the enrichment turn out when D476G was run?
**A.** 1.92

**Q.** With Q236A as the variant, how does the enrichment read?
**A.** 2.27

**Q.** For L156K, which enrichment is on record?
**A.** 2.02

**Q.** How did the enrichment turn out when K260A was run?
**A.** 2.49

**Q.** How did the enrichment turn out when S73P was run?
**A.** 2.96

**Q.** For Y61A, which enrichment is on record?
**A.** 6.2

**Q.** Which enrichment does the source give for Q373K here?
**A.** 1.92

**Q.** How did the enrichment turn out when P19E was run?
**A.** 3.9

**Q.** With N482E as the variant, how does the enrichment read?
**A.** 1.99

**Q.** How did the enrichment turn out when T394R was run?
**A.** 3.98

**Q.** For E377L, which enrichment is on record?
**A.** 1.63

**Q.** With Q64M as the variant, how does the enrichment read?
**A.** 5.81

**Q.** For V27L, which enrichment is on record?
**A.** 2.04

**Q.** M357A was tested. Which enrichment did it give?
**A.** 1.97 and 1.82

**Q.** For T297L, which enrichment is on record?
**A.** 3.13

**Q.** R248L was tested. Which enrichment did it give?
**A.** 2.23

**Q.** With L315R as the variant, how does the enrichment read?
**A.** 1.62

**Q.** D411L was tested. Which enrichment did it give?
**A.** 3.15

**Q.** N137Q was tested. Which enrichment did it give?
**A.** 1.42

**Q.** For A298E, which enrichment is on record?
**A.** 2.55 and 1.66

**Q.** Which enrichment does the source give for P399S here?
**A.** 3.98

**Q.** With E132L as the variant, how does the enrichment read?
**A.** 1.84

**Q.** R113G was tested. Which enrichment did it give?
**A.** 1.5

**Q.** Which enrichment does the source give for A358E here?
**A.** 2.37

**Q.** E321A was tested. Which enrichment did it give?
**A.** 1.62

**Q.** With F424E as the variant, how does the enrichment read?
**A.** 27.7

**Q.** D374A was tested. Which enrichment did it give?
**A.** 1.98

**Q.** L167K was tested. Which enrichment did it give?
**A.** 1.57

**Q.** For A499G, which enrichment is on record?
**A.** 1.7

**Q.** E245K was tested. Which enrichment did it give?
**A.** 3.75

**Q.** With N288A as the variant, how does the enrichment read?
**A.** 1.84

**Q.** With A287E as the variant, how does the enrichment read?
**A.** 3.57 and 6.74

**Q.** Which enrichment does the source give for S483K here?
**A.** 2.55

**Q.** How did the enrichment turn out when T336D was run?
**A.** 3.64

**Q.** L353K was tested. Which enrichment did it give?
**A.** 3.06

**Q.** For I160A, which enrichment is on record?
**A.** 1.61

Same assay, conditions: with PIK3R3 (phosphatidylinositol 3-kinase regulatory subunit gamma), Q92569; yeast diploids after mating (RBait_S3 x RPrey_S3), 30 °C, selection for reporter genes on NB agar; human tyrosine kinase ABL2 co-expressed as the active kinase …; HIGHER = WEAKER BINDING (the opposite of display enrichments): higher = stronger loss of interaction: reverse Y2H selects yeast in which bait and prey do NOT interact (growth without adenine), so a …; hits-only table; scale: rY2H score; numbering: uniprot, sequence starts at 1

**Q.** Which enrichment does the source give for E309K here?
**A.** 3.02

**Q.** With M401E as the variant, how does the enrichment read?
**A.** 2.14

**Q.** Which enrichment does the source give for A316E here?
**A.** 2.22 and 3.1

**Q.** How did the enrichment turn out when T394A was run?
**A.** 2.14

**Q.** With E321L as the variant, how does the enrichment read?
**A.** 3.49

**Q.** With A365K as the variant, how does the enrichment read?
**A.** 2.58

**Q.** How did the enrichment turn out when A155C was run?
**A.** 1.8 and 1.98

**Q.** Which enrichment does the source give for T297L here?
**A.** 1.67

**Q.** A287E was tested. Which enrichment did it give?
**A.** 2.8
